Laboratory results reported in US20230183713A1, “SITE-SPECIFIC RECOMBINASES FOR EFFICIENT AND SPECIFIC GENOME EDITING” (TECHNISCHE UNIVERSITÄt DRESDEN, published 2023).
Numbering of substitutions follows the chain as printed. Names may count otherwise.

Experiments:
[1] = target: T1, Cre recombinase monomer with Y324L mutation
T1 chain: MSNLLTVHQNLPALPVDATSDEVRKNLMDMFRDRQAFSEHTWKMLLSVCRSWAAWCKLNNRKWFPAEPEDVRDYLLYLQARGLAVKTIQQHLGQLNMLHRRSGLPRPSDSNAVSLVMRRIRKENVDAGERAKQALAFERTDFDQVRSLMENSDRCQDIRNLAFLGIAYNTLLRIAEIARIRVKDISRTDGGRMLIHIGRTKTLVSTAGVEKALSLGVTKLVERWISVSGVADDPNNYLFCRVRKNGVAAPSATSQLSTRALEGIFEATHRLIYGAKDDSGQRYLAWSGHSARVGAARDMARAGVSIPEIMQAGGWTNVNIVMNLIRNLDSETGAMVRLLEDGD

[2] = target: T2, Cre recombinase monomer with Q311R mutation
T2 chain: T1 chain with Q311R, L324Y

[3] = target: T3, Cre recombinase monomer with Y324V mutation
T3 chain: T1 chain with L324V

[4] = target: T4, Cre recombinase monomer with Y324M mutation
T4 chain: T1 chain with L324M

[5] = target: T5, Cre recombinase monomer with E176Y mutation
T5 chain: T1 chain with E176Y, L324Y

[6] = target: T6, Cre recombinase monomer with E176H mutation
T6 chain: T1 chain with E176H, L324Y

[7] = target: T7, Cre recombinase monomer with Y324K mutation
T7 chain: T1 chain with L324K

[8] = target: T8, Cre recombinase monomer with E176M mutation
T8 chain: T1 chain with E176M, L324Y

[9] = target: T9, Cre recombinase monomer with E176V mutation
T9 chain: T1 chain with E176V, L324Y

[10] = target: T10, Cre recombinase monomer with W315T mutation
T10 chain: T1 chain with W315T, L324Y

[11] = target: T11, Cre recombinase monomer with E176I mutation
T11 chain: T1 chain with E176I, L324Y

B1: Cre recombinase monomer with K201P mutation (protein)
chain: T1 chain with K201P, L324Y
- Median dimer activity (recombination on loxP) [1]: 59%
- Median dimer activity (recombination on loxP) [2]: 95%

B2: Cre recombinase monomer with W315G mutation (protein)
chain: T1 chain with W315G, L324Y
- Median dimer activity (recombination on loxP) [3]: 37%
- Median dimer activity (recombination on loxP) [4]: 35%

B3: Cre recombinase monomer with R173W mutation (protein)
chain: T1 chain with R173W, L324Y
- Median dimer activity (recombination on loxP) [5]: 30%
- Median dimer activity (recombination on loxP) [6]: 57%
- Median dimer activity (recombination on loxP) [2]: 95%

B4: Cre recombinase monomer with W315M mutation (protein)
chain: T1 chain with W315M, L324Y
- Median dimer activity (recombination on loxP) [1]: 71%

B5: Cre recombinase monomer with W315K mutation (protein)
chain: T1 chain with W315K, L324Y
- Median dimer activity (recombination on loxP) [7]: 99%

B6: Cre recombinase monomer with R173M mutation (protein)
chain: T1 chain with R173M, L324Y
- Median dimer activity (recombination on loxP) [8]: 39%
- Median dimer activity (recombination on loxP) [5]: 27%
- Median dimer activity (recombination on loxP) [6]: 75%
- Median dimer activity (recombination on loxP) [2]: 96%
- Median dimer activity (recombination on loxP) [9]: 75%

B7: Cre recombinase monomer with R173C mutation (protein)
chain: T1 chain with R173C, L324Y
- Median dimer activity (recombination on loxP) [8]: 27%
- Median dimer activity (recombination on loxP) [6]: 65%
- Median dimer activity (recombination on loxP) [2]: 91%

B8: Cre recombinase monomer with W315L mutation (protein)
chain: T1 chain with W315L, L324Y
- Median dimer activity (recombination on loxP) [10]: 50%

B9: Cre recombinase monomer with R173Q mutation (protein)
chain: T1 chain with R173Q, L324Y
- Median dimer activity (recombination on loxP) [8]: 32%
- Median dimer activity (recombination on loxP) [2]: 92%

B10: Cre recombinase monomer with R292T mutation (protein)
chain: T1 chain with R292T, L324Y
- Median dimer activity (recombination on loxP) [7]: 55%
- Median dimer activity (recombination on loxP) [2]: 94%

B11: Cre recombinase monomer with R173I mutation (protein)
chain: T1 chain with R173I, L324Y
- Median dimer activity (recombination on loxP) [11]: 40%
- Median dimer activity (recombination on loxP) [6]: 42%
- Median dimer activity (recombination on loxP) [2]: 93%
- Median dimer activity (recombination on loxP) [9]: 44%

B12: Cre recombinase monomer with R292Y mutation (protein)
chain: T1 chain with R292Y, L324Y
- Median dimer activity (recombination on loxP) [4]: 90%
- Median dimer activity (recombination on loxP) [2]: 96%
